Experimental data published in patent publication US20250042994A1 (HAINAN SIMCERE ZAIMING PHARMACEUTICAL, published 2025).

T1: Human CD19-his protein (human, UniProt P15391 20-291)
T1 construct: bought protein; also called recombinant human CD19-His; CD19 full-length protein; not shown: His tag
T1 sequence (looked up): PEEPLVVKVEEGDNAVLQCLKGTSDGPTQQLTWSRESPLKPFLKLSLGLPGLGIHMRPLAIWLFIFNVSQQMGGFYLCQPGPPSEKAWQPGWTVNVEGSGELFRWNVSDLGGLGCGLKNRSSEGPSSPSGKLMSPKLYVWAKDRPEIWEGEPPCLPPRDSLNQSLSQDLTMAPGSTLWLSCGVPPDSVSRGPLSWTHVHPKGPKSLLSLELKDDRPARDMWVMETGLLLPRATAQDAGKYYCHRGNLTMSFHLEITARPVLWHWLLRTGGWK

T2: human CD19 on CHO-K1-human CD19 cells (human, UniProt P15391 20-556)
T2 construct: whole, on cells; also called CHO-K1-human CD19-2C8
T2 sequence (looked up): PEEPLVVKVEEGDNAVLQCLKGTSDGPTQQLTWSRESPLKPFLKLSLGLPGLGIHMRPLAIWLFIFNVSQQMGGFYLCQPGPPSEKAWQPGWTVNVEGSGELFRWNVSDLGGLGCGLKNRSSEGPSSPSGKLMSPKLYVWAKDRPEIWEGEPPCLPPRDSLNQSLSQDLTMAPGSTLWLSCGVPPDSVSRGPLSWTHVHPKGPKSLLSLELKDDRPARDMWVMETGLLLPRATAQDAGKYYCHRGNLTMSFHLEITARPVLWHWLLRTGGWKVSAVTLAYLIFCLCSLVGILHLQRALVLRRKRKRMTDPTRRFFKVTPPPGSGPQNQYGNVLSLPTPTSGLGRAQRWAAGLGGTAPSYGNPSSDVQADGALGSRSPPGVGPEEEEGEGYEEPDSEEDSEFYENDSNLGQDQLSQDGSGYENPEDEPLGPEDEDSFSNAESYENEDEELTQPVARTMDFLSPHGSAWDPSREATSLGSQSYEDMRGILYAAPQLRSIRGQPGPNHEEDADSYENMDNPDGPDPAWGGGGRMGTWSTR

T3: human CD19 on Raji cells (human, UniProt P15391 20-556)
T3 construct: whole, on cells
T3 sequence (looked up): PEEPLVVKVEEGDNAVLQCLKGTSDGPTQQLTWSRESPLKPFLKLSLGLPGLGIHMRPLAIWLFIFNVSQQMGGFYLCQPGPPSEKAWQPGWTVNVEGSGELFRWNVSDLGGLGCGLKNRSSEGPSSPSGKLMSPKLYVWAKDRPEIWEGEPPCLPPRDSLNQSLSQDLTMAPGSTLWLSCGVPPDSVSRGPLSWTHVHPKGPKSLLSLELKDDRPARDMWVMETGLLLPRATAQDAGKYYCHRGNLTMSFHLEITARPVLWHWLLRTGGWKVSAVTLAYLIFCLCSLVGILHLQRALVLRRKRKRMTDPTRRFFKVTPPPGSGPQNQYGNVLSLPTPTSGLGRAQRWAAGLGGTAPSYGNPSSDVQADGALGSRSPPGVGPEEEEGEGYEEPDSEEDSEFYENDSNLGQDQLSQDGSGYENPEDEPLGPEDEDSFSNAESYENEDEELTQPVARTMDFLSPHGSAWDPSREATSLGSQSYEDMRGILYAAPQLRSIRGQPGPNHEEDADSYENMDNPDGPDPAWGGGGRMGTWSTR

T4: human CD19 exon1-3-His tag protein (human, UniProt P15391 20-186, limits assumed)
T4 construct: membrane-distal part of the extracellular region, made in HEK293E cells; not shown: His tag
T4 sequence (looked up): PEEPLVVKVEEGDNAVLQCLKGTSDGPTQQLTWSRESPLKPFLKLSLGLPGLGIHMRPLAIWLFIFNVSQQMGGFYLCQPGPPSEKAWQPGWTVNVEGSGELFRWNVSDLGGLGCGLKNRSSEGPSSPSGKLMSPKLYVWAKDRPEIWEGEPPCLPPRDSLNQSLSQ


Assays:
Human CD19-his protein [1] = target: T1, Human CD19-his protein; test: SPR Biacore, method of example 7.1, human CD19-His
Protocol: A sample buffer and a running buffer were HBS-EP+ (10 mM HEPES, 150 mM NaCl, 3 mM EDTA and 0.05% surfactant P20) (GE Healthcare; BR-1006-69). The flow-through cell was set to 25° C. The sample block was set to 16° C. Both were pretreated with the running buffer. In each cycle, an antibody to be detected was first captured with a Protein A chip, and then a single concentration of CD19 antigen protein was injected. The binding and dissociation processes of the antibody and the antigen protein were recorded, and finally Glycine pH 1.5 (GE Healthcare; BR-1003-54) was used to complete chip regeneration. The binding was measured by injecting different concentrations of recombinant human CD19-His proteins in a solution for 240 s with a flow rate of 30 μl/min. The concentration started from 200 nM (see the detailed results for the actual concentration in the test) and was diluted at 1:1, making a total of 5 concentrations. The dissociation phase was monitored for up to 600 s and was triggered by switching from sample solution to running buffer. The surface was regenerated by washing with a 10 mM glycine solution (pH 1.5) for 30 s at a flow rate of 30 μl/min. Bulk refractive index difference was corrected by subtracting the response obtained from the goat anti-human Fc surface. Blank injection was also subtracted (=double reference). For calculation of apparent KD and other kinetic parameters, Langmuir 1:1 model was used.
SPR (biacore) detection and data analysis were performed according to the method in example 7.1.

[2] = target: T2, human CD19 on CHO-K1-human CD19 cells; test: FACS on CHO-K1-human CD19 cells
Protocol: (§1) After the digestion was terminated, the cells were washed 2 times with a PBS buffer; and for suspension cell Raji, the supernatant of the medium was discarded by directly centrifugation, and the cell pellet was washed 2 times with PBS. After counting the cells in the previous step, the cell pellet was resuspended with [PBS+2% (w/w) BSA] blocking solution to 2×10⁶ cells/ml, and added to a 96-well FACS reaction plate at 50 μl/well, and then the sample to be tested was added at 50 μl/well, and incubated on ice for 2 h. The obtained mixture was centrifuged and washed 3 times with a PBS buffer. […] The obtained mixture was centrifuged and washed 5 times with a PBS buffer, and FACS (FACS Canto™, purchased from BD Company) was used for detection and result analysis. Data analysis was performed by software (FlowJo) to obtain the mean fluorescence intensity (MFI) of the cells. And then software (GraphPad Prism8) was used for analysis, data fitting, and EC50 value calculation. […] The same method was used to detect the binding of the chimeric antibodies to endogenous CD19-negative cells, MoLT4 cells (purchased from ATCC, CRL-1582), and CHO-K1 cells.

human CD19 on Raji cells = target: T3, human CD19 on Raji cells; test: FACS on Raji cells
Protocol: as §1

[3] = target: T4, human CD19 exon1-3-His tag protein; test: ELISA, coated human CD19 exon 1-3-His
Human CD19-his protein [4] = target: T1, Human CD19-his protein; test: ELISA, coated human CD19-His
Protocol: Human CD19-his protein (purchased from ACROBiosystems, catalog number: CD9-H52H2) was diluted with PBS to a final concentration of 4 μg/mL, and then added to a 96-well ELISA plate at 100 μl/well. The plate was sealed with a plastic film and incubated overnight at 4° C., the plate was washed 2 times with PBS the next day, and then a blocking solution [PBS+2% (w/w) BSA] was added for blocking at room temperature for 2 h. The blocking solution was poured off, and 100 nM gradiently diluted CD19 chimeric antibody or control antibody was added at 50 μl/well. After incubation at 37° C. for 2 h, the plate was washed 3 times with PBS. […] TMB substrate was added at 50 μl/well, and incubated at room temperature for 10 min, and then a stop solution (1.0 N HCl) was added at 50 μl/well. The OD450 nm values were read by an ELISA microplate reader (Multimode Plate Reader, EnSight, purchased from Perkin Elmer).

Human CD19-his protein [5] = target: T1, Human CD19-his protein; test: ELISA on coated human CD19-His

Kd (Human CD19-his protein [1])	koff (Human CD19-his protein [1])	kon (Human CD19-his protein [1])	EC50 [2]	Maximum mean fluorescence intensity [2]	EC50 (human CD19 on Raji cells)	Maximum mean fluorescence intensity (human CD19 on Raji cells)	OD450 at 0.0001 nM [3]	OD450 at 0.001 nM [3]	OD450 at 0.01 nM [3]	OD450 at 0.10 nM [3]	OD450 at 1.00 nM [3]	OD450 at 10 nM [3]	OD450 at 100 nM [3]	OD450 at 0.0001 nM (Human CD19-his protein [4])	OD450 at 0.001 nM (Human CD19-his protein [4])	OD450 at 0.01 nM (Human CD19-his protein [4])	OD450 at 0.10 nM (Human CD19-his protein [4])	OD450 at 1.00 nM (Human CD19-his protein [4])	OD450 at 10 nM (Human CD19-his protein [4])	Binder	further results
0.0498 pM	5.65e-09 s⁻¹	113000 M⁻¹ s⁻¹	1.08 nM	52100 MFI	0.42 nM	32200 MFI	0.05 OD450	0.05 OD450	0.05 OD450	0.05 OD450	0.05 OD450	0.05 OD450	0.12 OD450	0.1 OD450	0.14 OD450	0.42 OD450	1.6 OD450	2.36 OD450	2.3 OD450	F3.121.4-L3H2 (antibody, mouse IgG1, kappa, V domains shown, humanized antibody of F3.121.4, VL3+VH2, murine IgG1 constant regions) VH: EVQLVQSGAEVKKPGASVKVSCKASGYTFTNYWMHWVRQAPGQGLEWMGEIDPSDNYANYNQEFQGRVTITVDKSASTAYMELSSLRSEDTAVYYCARHDGYFGALDYWGQGTTVTVSS VL: EIVLTQSPDFQSVTPKEKVTITCSASSSISSNYLHWYQQKPDQSPKFLIYRTSNLASGVPSRFSGSGSGTDFTLTINSLEAEDAATYYCQQASSIPRMFTFGQGTKLEIKR	OD450 at 100 nM (Human CD19-his protein [4]): 2.28 OD450; EC50 (read off the curve) (Human CD19-his protein [5]): ~0.05 nM
225 pM	2.51e-05 s⁻¹	112000 M⁻¹ s⁻¹	1.05 nM	50500 MFI	0.43 nM	32500 MFI	0.06 OD450	0.06 OD450	0.06 OD450	0.06 OD450	0.06 OD450	0.07 OD450	0.11 OD450	0.11 OD450	0.16 OD450	0.51 OD450	1.68 OD450	2.31 OD450	2.26 OD450	F3.121.4-L3H4 (antibody, mouse IgG1, kappa, humanized antibody of F3.121.4, VL3+VH4, murine IgG1 constant regions) heavy: EVQLQQSGAEVKKPGASVKVSCKASGYTFTNYWMHWVRQRPGQGLEWMGEIDPSDNYANYNQEFQGRVTITVDKSASTAYMELSSLRSEDTAVYYCARHDGYFGALDYWGQGTTVTVSSAKTTPPSVYPLAPGSAAQTNSMVTLGCLVKGYFPEPVTVTWNSGSLSSGVHTFPAVLQSDLYTLSSSVTVPSSTWPSETVTCNVAHPASSTKVDKKIVPRDCGCKPCICTVPEVSSVFIFPPKPKDVLTITLTPKVTCVVVDISKDDPEVQFSWFVDDVEVHTAQTQPREEQFNSTFRSVSELPIMHQDWLNGKEFKCRVNSAAFPAPIEKTISKTKGRPKAPQVYTIPPPKEQMAKDKVSLTCMITDFFPEDITVEWQWNGQPAENYKNTQPIMDTDGSYFVYSKLNVQKSNWEAGNTFTCSVLHEGLHNHHTEKSLSHSPGK light: EIVLTQSPDFQSVTPKEKVTITCSASSSISSNYLHWYQQKPDQSPKFLIYRTSNLASGVPSRFSGSGSGTDFTLTINSLEAEDAATYYCQQASSIPRMFTFGQGTKLEIKRADAAPTVSIFPPSSEQLTSGGASVVCFLNNFYPKDINVKWKIDGSERQNGVLNSWTDQDSKDSTYSMSSTLTLTKDEYERHNSYTCEATHKTSTSPIVKSFNRNEC	OD450 at 100 nM (Human CD19-his protein [4]): 2.31 OD450; EC50 (read off the curve) (Human CD19-his protein [5]): ~0.05 nM
8.8 pM	1.04e-06 s⁻¹	118000 M⁻¹ s⁻¹	1.16 nM	51800 MFI	0.45 nM	32200 MFI	0.05 OD450	0.05 OD450	0.05 OD450	0.05 OD450	0.05 OD450	0.05 OD450	0.08 OD450	0.1 OD450	0.15 OD450	0.43 OD450	1.65 OD450	2.28 OD450	2.22 OD450	F3.121.4-L3H3 (antibody, mouse IgG1, kappa, humanized antibody of F3.121.4, VL3+VH3, murine IgG1 constant regions) heavy: EVQLVQSGAEVKKPGASVKVSCKASGYTFTNYWMHWVRQRPGQGLEWMGEIDPSDNYANYNQEFQGRVTITVDKSASTAYMELSSLRSEDTAVYYCARHDGYFGALDYWGQGTTVTVSSAKTTPPSVYPLAPGSAAQTNSMVTLGCLVKGYFPEPVTVTWNSGSLSSGVHTFPAVLQSDLYTLSSSVTVPSSTWPSETVTCNVAHPASSTKVDKKIVPRDCGCKPCICTVPEVSSVFIFPPKPKDVLTITLTPKVTCVVVDISKDDPEVQFSWFVDDVEVHTAQTQPREEQFNSTFRSVSELPIMHQDWLNGKEFKCRVNSAAFPAPIEKTISKTKGRPKAPQVYTIPPPKEQMAKDKVSLTCMITDFFPEDITVEWQWNGQPAENYKNTQPIMDTDGSYFVYSKLNVQKSNWEAGNTFTCSVLHEGLHNHHTEKSLSHSPGK light: EIVLTQSPDFQSVTPKEKVTITCSASSSISSNYLHWYQQKPDQSPKFLIYRTSNLASGVPSRFSGSGSGTDFTLTINSLEAEDAATYYCQQASSIPRMFTFGQGTKLEIKRADAAPTVSIFPPSSEQLTSGGASVVCFLNNFYPKDINVKWKIDGSERQNGVLNSWTDQDSKDSTYSMSSTLTLTKDEYERHNSYTCEATHKTSTSPIVKSFNRNEC	OD450 at 100 nM (Human CD19-his protein [4]): 2.19 OD450; EC50 (read off the curve) (Human CD19-his protein [5]): ~0.05 nM
